The source of these data is publication PMC11012335.

Common to all, as to test: EMSA
(A gel shift assay detects complexes by their altered migration in electrophoresis.)

For data set [1], the system named is Hfq Y25D* (Escherichia coli K-12 MG1655). As to conditions: EMSA: 20 mM Tris-HCl pH 7.6, 0.5 M NaCl, 1 mM EDTA, 1% glycerol, 20 min at 25 C, native PAGE in 0.5x TBE at 4 C.
Data set [2] deals with Hfq Q8A (Escherichia coli K-12 MG1655). As to conditions: EMSA: 20 mM Tris-HCl pH 7.6, 0.5 M NaCl, 1 mM EDTA, 1% glycerol, 20 min at 25 C, native PAGE in 0.5x TBE at 4 C.
In data set [3] the test system is Hfq K56A/H57A (Escherichia coli K-12 MG1655). As to conditions: EMSA: 20 mM Tris-HCl pH 7.6, 0.5 M NaCl, 1 mM EDTA, 1% glycerol, 20 min at 25 C, native PAGE in 0.5x TBE at 4 C.
Data set [4] concerns Hfq H57A (Escherichia coli K-12 MG1655). As to conditions: EMSA: 20 mM Tris-HCl pH 7.6, 0.5 M NaCl, 1 mM EDTA, 1% glycerol, 20 min at 25 C, native PAGE in 0.5x TBE at 4 C.
Data set [5] relates to Hfq K56A (Escherichia coli K-12 MG1655). The settings on record: EMSA: 20 mM Tris-HCl pH 7.6, 0.5 M NaCl, 1 mM EDTA, 1% glycerol, 20 min at 25 C, native PAGE in 0.5x TBE at 4 C.
Data set [6] concerns the target Hfq K56A K56A (Escherichia coli K-12 MG1655) (UniProt P0A6X3). As to conditions: EMSA: 20 mM Tris-HCl pH 7.6, 0.5 M NaCl, 1 mM EDTA, 1% glycerol, 20 min at 25 C; native PAGE in 0.5x TBE at 4 C.
Data set [7] deals with Hfq Y25D* Y25D (Escherichia coli K-12 MG1655) (UniProt P0A6X3). The settings on record: EMSA: 20 mM Tris-HCl pH 7.6, 0.5 M NaCl, 1 mM EDTA, 1% glycerol, 20 min at 25 C; native PAGE in 0.5x TBE at 4 C.
In data set [8] the target is Hfq H57A H57A (Escherichia coli K-12 MG1655) (UniProt P0A6X3). As to conditions: EMSA: 20 mM Tris-HCl pH 7.6, 0.5 M NaCl, 1 mM EDTA, 1% glycerol, 20 min at 25 C; native PAGE in 0.5x TBE at 4 C.
Data set [9] addresses Hfq K56A/H57A K56A;H57A (Escherichia coli K-12 MG1655) (UniProt P0A6X3). The settings on record: EMSA: 20 mM Tris-HCl pH 7.6, 0.5 M NaCl, 1 mM EDTA, 1% glycerol, 20 min at 25 C; native PAGE in 0.5x TBE at 4 C.
For data set [10], the target named is Hfq Q8A Q8A (Escherichia coli K-12 MG1655) (UniProt P0A6X3). The settings on record: EMSA: 20 mM Tris-HCl pH 7.6, 0.5 M NaCl, 1 mM EDTA, 1% glycerol, 20 min at 25 C; native PAGE in 0.5x TBE at 4 C.

Consider DsrA, for which the binding signal (% of WT Hfq binding) was determined as 163 in data set [1] (43/174 nM Hfq monomer); 46.9 in [2] (43/174 nM Hfq monomer); 13.2 in data set [3] (43/174 nM Hfq monomer); 66.5 in data set [4] (43/174 nM Hfq monomer); 24.4 in data set [5] (43/174 nM Hfq monomer).
As to RNA I FL, the binding signal (% of WT Hfq binding) in [1] (130/260 nM Hfq monomer) came to 125; in data set [2] (130/260 nM Hfq monomer), 86.5; in [3] (130/260 nM Hfq monomer), 13.8; in data set [4] (130/260 nM Hfq monomer), 72.7; in data set [5] (130/260 nM Hfq monomer), 36.1.
As for “GGGAACACAUCAGAUUUCCUGGUGUAACGAAUUUUUUAAGUGCUUCUUGCUUAAGCAAGUUUCAUCCCGACCCCCUCAGGGUCGGGAUUU [DsrA]”, the binding signal (% of WT Hfq binding) in data set [6] was 24.4; in data set [7] it was 163; in data set [8], 66.5; in [9] it was 13.2; in data set [10], 46.9.
